According to patent publication CN116472284A (UNIV CALIFORNIA, dated 2023):

Experiments:
[1] = target: T1, SARS-CoV-2 spike receptor binding domain (RBD) (SARS-CoV-2, UniProt P0DTC2 328-533); assay: SPR, biotinylated RBD on CAP chip
[2] = target: T1, SARS-CoV-2 spike receptor binding …

B1: Nb6 (VHH)
VHH: QVQLVESGGGLVQAGGSLRLSCAASGIIFGRNAMGWYRQAPGKERELVAGITRRGSITYYADSVKGRFTISRDNAKNTVYLQMNSLKPEDTAVYYCAADPASPAPGDYWGQGTQVTVSS
notes: also called AeroNab6; NbCOV6
B1 gave a Kd [1] of 41 nM and an EC50 [2] of 190 nM.
